From PMC5777823 (eLife, 2017)

Molecular target: T1, CENP-L:CENP-N^230-C complex (human, UniProt Q8N0S6 1-344; Q96H22 230-339)
T1 construct: CENP-L, human; CENP-N, human, residues 230 to the C-terminus of the 339-residue protein; Form used in SEC and ITC, named without GST; tag probably cleaved with 3C protease; also called CENP-LN^230-C; CENP-LN^230-C dimer; source: Tnao38 insect cells (baculovirus, co-expressed), purified (GSH-Sepharose, Superdex 200)
Experiment: ITC; 25°C, ITC200; 20 mM HEPES pH 7.5, 2.5% glycerol, 300 mM NaCl, 1 mM TCEP; protein in the cell at 5–8 µM, ligand at 50–80 µM; single site binding model
Conditions: both partners purified

T1 sequence (Q8N0S6 whole entry, chain 1 of 2, the tested form may be a part): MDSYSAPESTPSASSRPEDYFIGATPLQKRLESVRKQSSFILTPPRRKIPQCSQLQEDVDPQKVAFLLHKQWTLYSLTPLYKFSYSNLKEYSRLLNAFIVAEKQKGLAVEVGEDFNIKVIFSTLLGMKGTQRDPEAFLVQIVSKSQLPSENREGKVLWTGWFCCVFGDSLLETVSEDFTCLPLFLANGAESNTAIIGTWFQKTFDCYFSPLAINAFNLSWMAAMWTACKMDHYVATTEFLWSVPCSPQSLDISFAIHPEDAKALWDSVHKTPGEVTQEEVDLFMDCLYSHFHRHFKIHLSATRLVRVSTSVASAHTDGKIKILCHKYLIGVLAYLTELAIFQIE
T1 sequence (Q96H22 230-339, chain 2 of 2): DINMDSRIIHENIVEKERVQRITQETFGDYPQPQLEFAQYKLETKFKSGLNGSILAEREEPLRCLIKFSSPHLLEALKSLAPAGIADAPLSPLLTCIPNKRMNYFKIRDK

Kd: 1000 nM
B1: CENP-C^225-364 (domain or fragment, human, UniProt Q03188 225-364, looked up)
chain: SDEEDKTSEGQERKPSGSSQNRIRDSEYEIQRQAKKSFSTLFLETVKRKSESSPIVRHAATAPPHSCPPDDTKLIEDEFIIDESDQSFASRSWITIPRKAGSLKQRTISPAESTALLQGRKSREKHHNILPKTLANDKHS
notes: pGEX-6P-2rbs; named without GST in the assays; source: bacteria, purified as described (Klare et al., 2015)
